Patent US20110262445A1 (CEPHALON AUSTRALIA, published 2011)
Where a chain is given by its changes, count along the chain named. In names and notes the source's numbering stands. Like-named read-outs stand apart in the source and are kept apart here. Each block holds one binder with its values, some of them ahead of it.

What was measured:
[1] = target: T1, human IL-23 (human, UniProt P29460 23-328; Q9NPF7 20-189); assay: ELISA, coated IL-23
T1 construct: Recombinant (Ebioscience); HIS-tagged in flow cytometry, biotinylated in some assays; also called hIL-23; rhIL-23
T1 sequence 1: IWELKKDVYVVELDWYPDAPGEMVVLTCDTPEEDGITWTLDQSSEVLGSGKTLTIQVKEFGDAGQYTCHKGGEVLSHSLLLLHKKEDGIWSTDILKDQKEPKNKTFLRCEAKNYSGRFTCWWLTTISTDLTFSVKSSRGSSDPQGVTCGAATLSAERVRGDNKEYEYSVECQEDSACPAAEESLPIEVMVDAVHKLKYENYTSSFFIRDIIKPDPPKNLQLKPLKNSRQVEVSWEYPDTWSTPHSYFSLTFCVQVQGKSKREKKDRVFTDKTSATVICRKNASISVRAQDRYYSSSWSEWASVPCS
T1 sequence 2: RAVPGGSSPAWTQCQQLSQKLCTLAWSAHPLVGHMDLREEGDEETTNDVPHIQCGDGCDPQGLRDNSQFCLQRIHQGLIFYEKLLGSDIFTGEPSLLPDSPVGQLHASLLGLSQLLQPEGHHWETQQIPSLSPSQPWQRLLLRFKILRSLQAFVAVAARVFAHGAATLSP
Description: (§1) IL-12 (Peprotech), IL-23 (Ebioscience™), IL-12p40 (Ebioscience™) or IL-12p80 (Peprotech), was diluted to 1 μg/mL in carbonate coating buffer ([…] pH 9.6) and coated onto a 96 well plate (Nunc™, Maxisorp™) overnight at 4° C. The plate was then washed three times with wash buffer (0.01M PBS pH 7.2, 0.05% Tween-20) and then three times with 0.01M PBS pH 7.2. The wells were then blocked by adding 200 μl of blocking buffer (1% w/v BSA in 0.01 M PBS pH 7.2) to each well and incubating the plate at 25° C. for 1 hour. The antibody was diluted in antibody diluent (1% w/v BSA, 0.05% Tween-20 in 0.01M PBS pH 7.2) sufficient to generate a titration curve. The wells were incubated with the antibody for 1 hour at 25° C. The plate was then washed as previously described. Goat anti-human immunoglobulin G (H+L) antibody HRP conjugate (Zymed®) at 1:2000 in antibody diluent was used to detect bound primary antibody. Goat anti-murine immunoglobulin antibody HRP conjugate (Dako) at 1:2000 in antibody diluent was used to detect bound murine antibody. After incubation at 25° C. for 1 hour the plate was washed again as previously described. TMB substrate solution (Zymed®) was added to each well and the colour allowed to develop; the reaction was terminated by adding 1M HCl to the wells. The absorbance of each well was determined at 450 nm (ref. 620 nm).

[2] = target: T2, human IL-12 (human, UniProt P29460 23-328; P29459 23-219); assay: ELISA, coated IL-12
T2 construct: Recombinant (Peprotech); FLAG-tagged IL-12 in the flow cytometry assays, biotinylated in the IL-12Rβ2 assay; also called hIL-12
T2 sequence 1: T1 sequence 1
T2 sequence 2: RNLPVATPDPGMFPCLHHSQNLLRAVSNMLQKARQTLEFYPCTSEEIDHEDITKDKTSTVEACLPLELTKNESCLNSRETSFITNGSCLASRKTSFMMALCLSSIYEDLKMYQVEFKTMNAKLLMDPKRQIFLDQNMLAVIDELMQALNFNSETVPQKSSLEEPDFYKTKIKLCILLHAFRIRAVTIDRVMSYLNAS
Description: as §1

[3] = target: T1, human IL-23; assay: ELISA, coated IL-23; remark: listed apart in the source
Description: This cysteine at the start of CDR3 could be oxidized, causing heterogeneity in any resulting antibody product. It could also form complexes by disulphide bond formation. Therefore, each of the other 18 (the exceptions being the original Cys and Trp) amino acids was substituted in this position using gene synthesis, and the antibodies were expressed transiently (Antibodies 5, 6, 7, 8, 9, 10, 11, 12, 13, 14, 15, 16, 17, 18, 19, 20, 21, 22). An ELISA was performed on these antibodies (FIG. 9). Some of the antibodies retained binding activity for both IL-12 and IL-23, others only for one cytokine or the other, while others minimally bound to either cytokine.
as §1

[4] = target: T2, human IL-12; assay: ELISA, coated IL-12; remark: listed apart in the source
Outline: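 Maxisorp plates were coated overnight at 4° C with cytokine at 1 μg/mL in carbonate buffer pH 9.6, then blocked for 1 hour at 25° C with 1% BSA in PBS. Antibody titrations were allowed to bind for 1 hour at 25° C and detected with goat anti-human IgG or anti-murine immunoglobulin HRP (1:2000, 1 hour), followed by TMB development stopped with 1M HCl. Binding is reported as absorbance. Readings were taken at 450 nm against a 620 nm reference.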

[5] = target: T2, human IL-12; assay: SPR, single 81 nM analyte, scFv via FLAG

B1: Antibody 175 (antibody, human IgG1, kappa, V domains shown)
VH: EVQLVQSGAEVKKPGATVKISCKASGYAFSDYYLHWVRQAPEKGLEWMGWIDPENGDTEYAPKFQGRVTITADTSTDTGYLELSSLRSEDTAVYYCAANKELRYFDVWGQGTLVTVSS
VL: DIQMTQSPSSVSASVGDRVTITCRASQSISINLHWYQQKPGKAPKLLIYFASQSISGVPSRFSGSGSGTDFSLTINSLQTEDFATYYCQQSNSFPLTFGGGTKVEIKR
binding result [1]: binds
binding result [2]: binds

B2: Antibody 179 (antibody, human IgG1, kappa)
heavy: not shown
light: DIQMTQSPSSVSASVGDRVTITCRASQSISINLHWYQQKPGKAPKLLIYFASQSISGVPSRFSGSGSGTDFSLTINSLQTEDFATYYCQQSNSFPLTFGGGTKVEIKRTVAAPSVFIFPPSDEQLKSGTASVVCLLNNFYPREAKVQWKVDNALQSGNSQESVTEQDSKDSTYSLSSTLTLSKADYEKHKVYACEVTHQGLSSPVTKSFNRGEC
binding result [1]: binds
binding result [2]: binds

B3: Antibody 5 (antibody, human IgG1, kappa, V domains shown)
VH: EVQLQQSGADLVRSGASIKLSCTASGFNIKDYYMHWVKQRPEQGLEWIGWIDPENGDTEYAPKFQGKATMTADTSSNTAYLQLSSLTSEDTAVYYCNAAKELRYFDVWGAGTTVTVSS
VL: DIVLTQSPATLSVTPGDSVSLSCRASQSISINLHWYQQKSHESPRLLIKFASQSISGIPSRFSGYGSGTDFTLSINSVETEDFGRYFCQQSNSWPLTFGAGTKLELKR
binding result [3]: binds
binding result [4]: binds

B5: Antibody 11 (antibody, human IgG1, kappa, V domains shown)
VH: B3 VH with A99G
VL: B3 VL
binding result [3]: binds
binding result [4]: binds

B6: Antibody 8 (antibody, human IgG1, kappa, V domains shown)
VH: B3 VH with A99D
VL: B3 VL
binding result [3]: binds
binding result [4]: binds

B7: Antibody 10 (antibody, human IgG1, kappa, V domains shown)
VH: B3 VH with A99Q
VL: B3 VL
binding result [3]: binds
binding result [4]: binds

B8: Antibody 9 (antibody, human IgG1, kappa, V domains shown)
VH: B3 VH with A99E
VL: B3 VL
binding result [3]: binds
binding result [4]: binds

B11: Antibody 191 (antibody, human IgG1, kappa, V domains shown)
VH: QVQLVQSGAEVKKPGASVKVSCKASGYTFTDYYLHWVRQAPGQGLEWMGWIDPENGDTEYAPKFQGRVTMTTDTSTSTAYMELRSLRSDDTAVYYCAANKELRYFDVWGQGTMVTVSS
VL: B1 VL
binding result [1]: binds
binding result [2]: binds

Continued, values first:

binding result [4]: no binding (tested: not given)
B4: Antibody 6 (antibody, human IgG1, kappa, V domains shown)
VH: B3 VH with A99R
VL: B3 VL

Kd [5]: 0.05 nM
koff [5]: 7.5e-05 s⁻¹
kon [5]: 1.5e+06 M⁻¹ s⁻¹
B9: scFv combo. # 16 (scFv)
scFv: QVQLVQSGAEVKKPGASVKVSCKASGYTLTDYYLHWVRQAPGQGLEWMGWIDPENGDTEYAPKFQGRVTMTTDTSTSTAYMELRSLRSDDTAVYYCNANKELRYFDVWGQGTMVTVSSGGGGSGGGGSGGGGSEIVMTQSPATLSVSPGERATLSCRASQSISINLHWYQQKPGQAPRLLIYFARQSISGIPARFSGSGSGTEFTLTISSLQSEDFAVYYCQQSNSFPLTFGGGTKVEIKR
notes: scFv-80 with VH F29L; VL S52R; not shown: proprietary C-terminal FLAG tag

binding result [1]: binds
binding result [2]: binds
B10: Antibody 199 (antibody, human IgG1, kappa, V domains shown)
VH: B11 VH
VL: EIVMTQSPATLSVSPGERATLSCRASQSISINLHWYQQKPGQAPRLLIYFASQSISGIPARFSGSGSGTEFTLTISSLQSEDFAVYYCQQSNSFPLTFGGGTKVEIKR

binding result [1]: binds
binding result [2]: binds
B12: Antibody 197 (antibody, human IgG1, kappa, V domains shown)
VH: B11 VH with Q43R
VL: B1 VL

binding result [1]: binds
binding result [2]: binds
B13: Antibody 204 (antibody, human IgG1, kappa, V domains shown)
VH: B11 VH with K12E, R67G
VL: B10 VL
notes: not the murine PMA204

binding result [1]: binds
binding result [2]: binds
B14: Antibody 202 (antibody, human IgG1, kappa, V domains shown)
VH: B11 VH with F29L, Y60S
VL: B10 VL
notes: not the murine PMA202

binding result [1]: binds
binding result [2]: binds
B15: Antibody 196 (antibody, human IgG1, kappa, V domains shown)
VH: B11 VH with K12E, R67G
VL: B1 VL

binding result [1]: binds
binding result [2]: binds
B16: Antibody 201 (antibody, human IgG1, kappa, V domains shown)
VH: B11 VH with Y60S
VL: B10 VL

binding result [1]: binds
binding result [2]: binds
B17: Antibody 203 (antibody, human IgG1, kappa, V domains shown)
VH: B11 VH with Y60H
VL: B10 VL

binding result [1]: binds
binding result [2]: binds
B18: Antibody 200 (antibody, human IgG1, kappa, V domains shown)
VH: B11 VH with F29L
VL: B10 VL

binding result [2]: binds
B19: Antibody 206 (antibody, human IgG1, kappa, V domains shown)
VH: B11 VH with T28A
VL: B10 VL
